Like-named read-outs stand apart in the source and are kept apart here. Square brackets hold non-standard residues; d marks the D form. Ends that are not written are not given here. Aib = CC(C)(N)C(=O)O
Experiments:
[1] = pH 5.6
[2] = Test of solubility of insulin and long-acting insulin conjugate (RP-HPLC against calibration standard curve); type: physicochemical; settings: for Measurement value (quantitative value calculated by standard calibration curve): pH 6.0 acetic acid buffer, polysorbate, mannitol, sodium chloride, room temperature, supernatant
Source text: A respective calibration standard curve of insulin and the long-acting insulin conjugate was first confirmed by Reverse Phase-High Performance Liquid Chromatography (RP-HPLC), as in FIG. 1.

Row | Substance | difference between the theoretical value and the measurement value [1] | solubility [1] [µg/mL] | point at which completely dissolved without impurities or pellet (minimum quantitative value) ([1]; serial dilution of test material from about 5 mg/mL) [mg/mL] | solubility ([2]; FIG. 2, composition of Table 1, pH 6.0) [µg/mL] | difference between the theoretical value and the measurement value ([2]; dissolved in long-acting insulin conjugate formulation buffer, pH 6.0) | pellets after centrifugation ([2]; long-acting insulin conjugate formulation buffer, all cases, excluding 0.008 mg/mL) | point at which completely dissolved without impurities or pellet (minimum quantitative value) ([2]; serial dilution of test material from about 10 mg/mL, pH 6.0) [mg/mL] | Measurement value (quantitative value calculated by standard calibration curve) ([2]; theoretical quantitative value 0.008 mg/mL) [mg/mL] | Measurement value (quantitative value calculated by standard calibration curve) ([2]; theoretical quantitative value 0.04 mg/mL) [mg/mL] | Measurement value (quantitative value calculated by standard calibration curve) ([2]; theoretical quantitative value 0.2 mg/mL) [mg/mL] | Measurement value (quantitative value calculated by standard calibration curve) ([2]; theoretical quantitative value 1 mg/mL) [mg/mL] | Measurement value (quantitative value calculated by standard calibration curve) ([2]; theoretical quantitative value 5 mg/mL) [mg/mL] | Measurement value (quantitative value calculated by standard calibration curve) ([2]; theoretical quantitative value 10 mg/mL) [mg/mL]
1 | Oxyntomodulin derivative: oxyntomodulin derivative having the amino acid sequence of SEQ ID NO: 27, cysteine residue at position 30 (H[Aib]QGTFTSDYSKYLDEKRAKEFVQWLMNTC) | up to 27 times | 188 | 0.008 | – | – | – | – | – | – | – | – | – | –
2 | Insulin | – | – | – | 628 | up to 16 times | pellets were observed | 0.008 | 0.000 | 0.000 | 0.005 | 0.047 | 0.253 | 0.628

Reference: patent publication US20230220034A1, “METHOD FOR IMPROVING SOLUBILITY OF PROTEIN AND PEPTIDE BY USING IMMUNOGLOGULIN FC FRAGMENT LINKAGE” (HANMI PHARM. CO., LTD., priority 2014, published 2023)
